Measurements reported in paper PMC9786881 (Viruses, 2022).
Where “and” joins values, the source holds several entries; their conditions need not be identical. Equal entries are not always repeated.

B1: RABV phosphoprotein residues 1-68 with C-terminal His6 (P68−His6) (peptide)
chain: MSKIFVNPSAIRAGLADLEMAEETVDLINRNIEDNQAHLQGEPIEVDNLPEDMKRLHLDDEKSSNLGE
B2: full-length RABV phosphoprotein (PFL) (natural protein)
chain: MSKIFVNPSAIRAGLADLEMAEETVDLINRNIEDNQAHLQGEPIEVDNLPEDMKRLHLDDEKSSNLGEMVRVGEGKYREDFQMDEGEDPNLLFQSYLDNVGVQIVRQMRSGERFLKIWSQTVEEIVSYVTVNFPNPPRRSSEDKSTQTTGRELKKETTSAFSQRESQPSKARMVAQVAPGPPALEWSATNEEDDLSVEAEIAHQIAESFSKKYKFPSRSSGIFLYNFEQLKMNLDDIVKEAKNVPGVTRLAHDGSKIPLRCVLGWVALANSKKFQLLVEADKLSKIMQDDLNRYTSC
B3: RABV nucleoprotein lacking its N-terminal arm (N[change], residues 24-450) (domain or fragment)
chain: DQYEYKYPAIKDLKKPCITLGKAPDLNKAYKSVLSGMNAAKLDPDDVCSYLAAAMQFFEGTCPEDWTSYGILIARKGDRITPNSLVEIKRTDVDGNWALTGGMELTRDPTVSEHASLVGLLLSLYRLSKISGQNTGNYKTNIADRIEQIFETAPFVKIVEHHTLMTTHKMCANWSTIPNFRFLAGTYDMFFSRIEHLYSAIRVGTVVTAYEDCSGLVSFTGFIKQINLTAREAILYFFHKNFEEEIRRMFEPGQETAVPHSYFIHFRSLGLSGKSPYSSNAVGHVFNLIHFVGCYMGQVRSLNATVIAACAPHEMSVLGGYLGEEFFGKGTFERRFFRDEKELQEYEAAELTKTDVALADDGTVNSDDEDYFSGETRSPEAVYTRIMMNGGRLKRSHIRRYVSVSSNHQARPNSFAEFLNKTYSNDS

What was measured:
[1] = molecular target: B3; assay: fluorescence polarisation; settings: both partners purified
[2] = molecular target: B3; assay: fluorescence polarisation; settings: both partners purified; remark: listed apart in the source
[3] = molecular target: B3; assay: SEC-MALLS; settings: both partners purified
[4] = molecular target: the molecule itself; assay: SEC-SAXS
[5] = molecular target: B2; assay: SEC-SAXS; settings: both partners purified

B1
Kd [1]: 8.2 ± 0.6 nM | IC50 [2]: ~1000 nM | Kd [3]: < 1000 nM

B2
stoichiometry N [4]: 2

B3
stoichiometry N [5]: 2 N molecules per P dimer and 1 N molecules per P dimer
